B1: H2-Kb / Ed9 (parent complex)
chain 1: AQSVTQPDARVTVSEGASLQLRCKYSYFGTPYLFWYVQYPRQGLQLLLKYYPGDPVVQGVNGFEAEFSKSNSSFHLRKASVHWSDWAVYFCAVSITGGYKVVFGSGTRLLVSP
chain 2: DSGVVQSPRHIIKEKGGRSVLTCIPISGHSNVVWYQQTLGKELKFLIQHYEKVERDKGFLPSRFSVQQFDDYHSEMNMSALELEDSAMYFCASSPRQSDYTFGSGTRLLVI
chain 3: not shown
chain 4: IQKTPQIQVYSRHPPENGKPNILNCYVTQFHPPHIEIQMLKNGKKIPKVEMSDMSFSKDWSFYILAHTEFTPTETDTYACRVKHDSMAEPKTVYWDRDM
chain 5: SIINFEKL
B2: H2-Kb / B15 (parent complex)
chain 1: QQQVRQSPQSLTVWEGETAILNCSYENSAFDYFPWYQQFPGEGPALLISILSVSDKKEDGRFTIFFNKREKKLSLHIADSQPGDSATYFCAASAASNNRLTLGKGTQVVVLP
chain 2: DSGVVQSPRHIIKEKGGRSVLTCIPISGHSNVVWYQQTLGKELKFLIQHYEKVERDKGFLPSRFSVQQFDDYHSEMNMSALELEDSAMYFCASSRRADAEQFFGPGTRLTVL
chain 3: not shown
chain 4: B1 chain 4
chain 5: SIINFEKL

Variants of: B1
Assay: % of reporter cells activated (NFAT-GFP), raw
Further: test concentration or dose not given here.

Row | ratio to parent | Variant
1 | 0.147 | chain 5 S1C
2 | 0.245 | chain 5 S1F
3 | 0.224 | chain 5 S1G
4 | 1.17 | chain 5 S1A
5 | 0.402 | chain 5 S1R
6 | 0.0324 | chain 5 S1L
7 | 1.29 | chain 5 F5H
8 | 1.33 | chain 5 F5Q
9 | 1.27 | chain 5 F5V
10 | 1.32 | chain 5 F5M
11 | 1.36 | chain 5 F5L
12 | 0.817 | chain 5 L8P
13 | 0.957 | chain 5 L8C
14 | 1.16 | chain 5 L8H
15 | 1.32 | chain 5 I2V
16 | 1.21 | chain 5 I2D
17 | 1.31 | chain 5 I2L
18 | 0.905 | chain 5 I2N
19 | 0.854 | chain 5 I2H
20 | 1.18 | chain 5 I2M
21 | 1.11 | chain 5 I2E
22 | 1.12 | chain 5 I2R
23 | 1 | chain 5 I2P

Row | ratio to parent | Variant
24 | 0.858 | chain 5 I2Y
25 | 0.0497 | chain 5 E6C
26 | 0.725 | chain 5 E6M
27 | 0.203 | chain 5 E6N
28 | 0.469 | chain 5 E6S
29 | 0.0935 | chain 5 E6W
30 | 0.73 | chain 5 E6H
31 | 0.85 | chain 5 E6D
32 | 0.646 | chain 5 E6Q
33 | 0.47 | chain 5 K7A
34 | 0.919 | chain 5 K7I
35 | 0.845 | chain 5 K7V
36 | 0.525 | chain 5 K7P
37 | 1.03 | chain 5 I3L
38 | 1.01 | chain 5 I3S
39 | 1.12 | chain 5 I3V
40 | 1.17 | chain 5 I3H
41 | 0.633 | chain 5 I3C
42 | 0.0133 | chain 5 I3F
43 | 0.56 | chain 5 I3E
44 | 0.127 | chain 5 N4T
45 | 0.832 | chain 5 N4D

Variants of: B2
Assay: % of reporter cells activated (NFAT-GFP), raw

Row | ratio to parent | Variant
46 | 0.0424 | chain 5 I3F
47 | 0.812 | chain 5 I3L
48 | 0.479 | chain 5 I3W
49 | 0.798 | chain 5 I3V
50 | 0.491 | chain 5 I3H
51 | 0.0196 | chain 5 I3Y
52 | 0.891 | chain 5 I3M
53 | 0.599 | chain 5 I3E
54 | 0.339 | chain 5 I3R
55 | 0.71 | chain 5 I3K
56 | 0.362 | chain 5 I3G
57 | 0.273 | chain 5 I3T
58 | 0.607 | chain 5 I3C
59 | 0.0871 | chain 5 K7F
60 | 0.155 | chain 5 K7M
61 | 0.117 | chain 5 K7D
62 | 0.383 | chain 5 K7Y
63 | 0.774 | chain 5 K7S
64 | 0.454 | chain 5 K7V
65 | 0.124 | chain 5 K7T
66 | 0.291 | chain 5 K7H
67 | 0.928 | chain 5 K7R
68 | 0.212 | chain 5 K7Q
69 | 0.159 | chain 5 K7L
70 | 0.457 | chain 5 K7G
71 | 0.0434 | chain 5 K7E
72 | 0.836 | chain 5 K7W

Row | ratio to parent | Variant
73 | 0.0863 | chain 5 K7I
74 | 0.01 | chain 5 N4T
75 | 0.151 | chain 5 N4Y
76 | 0.0258 | chain 5 N4A
77 | 0.0638 | chain 5 N4W
78 | 0.184 | chain 5 N4G
79 | 0.00661 | chain 5 N4P
80 | 0.382 | chain 5 N4R
81 | 0.0905 | chain 5 N4C
82 | 0.00683 | chain 5 N4M
83 | 0.0675 | chain 5 N4D
84 | 0.391 | chain 5 N4L
85 | 0.741 | chain 5 L8E
86 | 0.955 | chain 5 L8M
87 | 0.907 | chain 5 L8F
88 | 0.793 | chain 5 L8Y
89 | 0.905 | chain 5 L8H
90 | 0.833 | chain 5 L8A
91 | 0.801 | chain 5 L8K
92 | 0.844 | chain 5 L8N
93 | 0.977 | chain 5 L8T
94 | 0.805 | chain 5 L8W
95 | 0.75 | chain 5 L8P
96 | 0.934 | chain 5 L8I
97 | 0.901 | chain 5 L8V
98 | 0.802 | chain 5 L8S
99 | 0.767 | chain 5 L8C

Row | ratio to parent | Variant
100 | 0.692 | chain 5 L8D
101 | 0.13 | chain 5 E6F
102 | 0.0123 | chain 5 E6V
103 | 0.328 | chain 5 E6P
104 | 0.41 | chain 5 E6Q
105 | 0.205 | chain 5 E6A
106 | 0.623 | chain 5 E6K
107 | 0.221 | chain 5 E6S
108 | 0.491 | chain 5 E6G
109 | 0.00958 | chain 5 E6I
110 | 0.15 | chain 5 E6Y
111 | 0.132 | chain 5 E6T
112 | 0.324 | chain 5 E6M
113 | 0.0482 | chain 5 E6W
114 | 0.221 | chain 5 E6R
115 | 0.47 | chain 5 E6C
116 | 0.764 | chain 5 I2Y
117 | 0.772 | chain 5 I2P
118 | 0.85 | chain 5 I2Q
119 | 0.959 | chain 5 I2S
120 | 0.958 | chain 5 I2A
121 | 0.987 | chain 5 I2D
122 | 0.859 | chain 5 I2K
123 | 0.972 | chain 5 I2R
124 | 1.03 | chain 5 I2L
125 | 0.9 | chain 5 I2H
126 | 1 | chain 5 I2V

Row | ratio to parent | Variant
127 | 0.917 | chain 5 I2G
128 | 0.934 | chain 5 I2C
129 | 0.974 | chain 5 I2N
130 | 0.579 | chain 5 F5Q
131 | 0.952 | chain 5 F5Y
132 | 0.999 | chain 5 F5V
133 | 0.96 | chain 5 F5R
134 | 0.531 | chain 5 F5E
135 | 1.03 | chain 5 F5T
136 | 0.673 | chain 5 F5N
137 | 0.553 | chain 5 F5D
138 | 0.944 | chain 5 F5H
139 | 0.981 | chain 5 F5W
140 | 0.953 | chain 5 F5A
141 | 0.591 | chain 5 S1K
142 | 0.669 | chain 5 S1G
143 | 0.115 | chain 5 S1I
144 | 0.759 | chain 5 S1E
145 | 0.847 | chain 5 S1A
146 | 0.577 | chain 5 S1C
147 | 0.456 | chain 5 S1L
148 | 0.199 | chain 5 S1V
149 | 0.545 | chain 5 S1P
150 | 0.383 | chain 5 S1W

— publication PMC11480844 (2024)
